Measurements taken from patent US20140302035A1.

Experiments:
c-Met (human) = c-Met (human) (UniProt P08581); assay: cell-based or functional assay
c-Met (human), P08581 = assay: cell-based or functional assay
c-Met (human), P08581, sequence (P08581 25-1390): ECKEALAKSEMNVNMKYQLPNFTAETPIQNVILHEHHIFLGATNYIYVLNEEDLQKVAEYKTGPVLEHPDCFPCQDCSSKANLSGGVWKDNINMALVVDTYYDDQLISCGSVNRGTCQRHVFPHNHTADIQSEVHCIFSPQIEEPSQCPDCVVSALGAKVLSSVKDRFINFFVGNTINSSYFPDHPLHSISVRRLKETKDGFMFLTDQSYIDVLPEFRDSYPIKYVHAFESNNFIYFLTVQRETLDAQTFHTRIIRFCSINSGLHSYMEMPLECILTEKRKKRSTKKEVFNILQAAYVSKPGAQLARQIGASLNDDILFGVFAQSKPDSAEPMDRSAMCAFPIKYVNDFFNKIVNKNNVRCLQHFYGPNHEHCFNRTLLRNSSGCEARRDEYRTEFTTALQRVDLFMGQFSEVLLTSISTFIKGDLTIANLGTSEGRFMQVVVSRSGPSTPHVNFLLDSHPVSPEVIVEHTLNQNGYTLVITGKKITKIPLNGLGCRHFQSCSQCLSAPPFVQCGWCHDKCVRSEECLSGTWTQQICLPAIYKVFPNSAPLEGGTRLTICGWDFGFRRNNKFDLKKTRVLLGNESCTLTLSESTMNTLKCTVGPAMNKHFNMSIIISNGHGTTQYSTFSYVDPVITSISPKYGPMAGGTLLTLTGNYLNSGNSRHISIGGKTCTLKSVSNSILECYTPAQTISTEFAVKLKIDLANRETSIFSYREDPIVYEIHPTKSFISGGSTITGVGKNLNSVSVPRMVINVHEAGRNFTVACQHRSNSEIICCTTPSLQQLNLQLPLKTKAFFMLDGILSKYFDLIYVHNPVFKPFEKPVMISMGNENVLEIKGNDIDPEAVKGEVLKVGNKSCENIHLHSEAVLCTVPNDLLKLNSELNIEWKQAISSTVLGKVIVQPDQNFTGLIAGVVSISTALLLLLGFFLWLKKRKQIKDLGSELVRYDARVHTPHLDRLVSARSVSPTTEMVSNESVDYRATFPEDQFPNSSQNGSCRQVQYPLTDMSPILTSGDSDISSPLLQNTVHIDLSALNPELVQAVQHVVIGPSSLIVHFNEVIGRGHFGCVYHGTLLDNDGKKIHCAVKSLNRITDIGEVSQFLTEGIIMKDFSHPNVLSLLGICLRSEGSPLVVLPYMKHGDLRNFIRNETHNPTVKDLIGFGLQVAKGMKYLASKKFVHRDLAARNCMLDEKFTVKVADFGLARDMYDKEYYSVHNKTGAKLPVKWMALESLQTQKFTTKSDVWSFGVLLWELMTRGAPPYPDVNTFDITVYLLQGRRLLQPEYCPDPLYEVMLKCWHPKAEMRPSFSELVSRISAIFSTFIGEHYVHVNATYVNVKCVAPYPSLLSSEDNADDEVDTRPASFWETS

c-Met (human), sequence (P08581 25-1390): as above

c-Met degradation (total c-Met ELISA, 24 h), A549 cells (c-Met (human)) [%] | reduction of c-Met expression (total c-Met ELISA, 24 h), NCI-H2170 cells (c-Met (human)) [%] | c-Met degradation (total c-Met ELISA, 24 h), A549 cells (c-Met (human), P08581) [%] | reduction of c-Met expression (total c-Met ELISA, 24 h), NCI-H2170 cells (c-Met (human), P08581) [%] | Binder
< 20 | 30 | – | – | OA-5D5 (antibody, part only; not given: constant regions and Fc knob chain, V domains shown, not shown: another chain or arm of the molecule; a dimerising Fc or GST) VH: EVQLVESGGGLVQPGGSLRLSCAASGYTFTSYWLHWVRQAPGKGLEWVGMIDPSNSDTRFNPNFKDRFTISADTSKNTAYLQMNSLRAEDTAVYYCATYRSYVTPLDYWGQGTLVTVSS VL: DIQMTQSPSSLSASVGDRVTITCKSSQSLLYTSSQKNYLAWYQQKPGKAPKLLIYWASTRESGVPSRFSGSGSGTDFTLTISSLQPEDFATYYCQQYYAYPWTFGQGTKVEIK
– | – | < 20 | 65 | Ab#5 (bispecific antibody, human IgG1, kappa) heavy: QLQLQESGPGLVKPSETLSLTCTVSGGSISSSVYYWSWIRQPPGKGLEWIGVIYPSGNTYYSPSLKSRVTISVDTSKNQFSLKLSSVTAADTAVYYCARTIYDLFDIWGQGTMVTVSSASTKGPSVFPLAPSSKSTSGGTAALGCLVKDYFPEPVTVSWNSGALTSGVHTFPAVLQSSGLYSLSSVVTVPSSSLGTQTYICNVNHKPSNTKVDKKVEPKSCDKTHTCPSCPAPEFLGGPSVFLFPPKPKDTLMISRTPEVTCVVVDVSQEDPEVQFNWYVDGVEVHNAKTKPREEQFNSKYRVVSVLTVLHQDWLNGKEYKCKVSNKGLPSSIEKTISKAKGQPREPQVYTLPPSREEMTKNQVSLSCAVKGFYPSDIAVEWESNGQPENNYKTTPPVLDSDGSFFLVSKLTVDKSRWQQGNVFSCSVMHEALHNHYTQKSLSLSKSCDKTGGGGSGGGGSGGGGSGGGGSGGGGSGGGGSGGGGSGGGGSCPSCPAPEFLGGPSVFLFPPKPKDTLMISRTPEVTCVVVDVSQEDPEVQFNWYVDGVEVHNAKTKPREEQFNSDYRVVSVLTVLHQDWLNGKEYKCKVSNKGLPSSIEKTISKAKGQPREPQVYTLPPSREEMTKNQVSLWCLVKGFYPSDIAVEWESNGQPENNYKTTPPVLDSDGSFFLYSKLTVDKSRWQQGNVFSCSVMHEALHNHYTQKSLSLSGECGGGGSGGGGSDIVMTQSPLSLPVTPGEPASISCRSTKSLLHSNGITYLYWYLQKPGQSPQLLIYQMSNLASGVPDRFSSSGSGTDFTLKISRVEAEDEGVYYCAQNLEIPRTFGGGTKLEIKRTGGGGSGGGGSGGGGSGGGGSQVQLVQSGAEVKKPGESVKISCKASGYTFTNYGMNWVRQAPGQGLKWMGWINTYTGESTYADDFKGRFAFSLDTSASTAYLQLSSLRSEDTAVYFCARFAIKGDYWGQGTLVTVSS light: DIQMTQSPSSVSASVGDRVTITCRASQGISSWLAWYQQKPGKAPKLLIYAASSLQSGVPSRFSGSGSGTDFTLTISSLQPEDFATYYCLQANSFPPTFGGGTKVEIKRTVAAPSVFIFPPSDEQLKSGTASVVCLLNNFYPREAKVQWKVDNALQSGNSQESVTEQDSKDSTYSLSSTLTLSKADYEKHKVYACEVTHQGLSSPVTKSFNRGEC
